Experimental data published in PMC11320570 (ACS Infectious Diseases, 2024).

Key:
[1] = molecular target: DENV-2 EDIII wild-type Fc-fusion antigen (Dengue virus type 2, strain 16681, UniProt P29990); test: ELISA; details: both partners purified
[2] = molecular target: deglycosylated EDIII WT Fc-fusion antigen (Dengue virus type 2, strain 16681, UniProt P29990); test: ELISA; details: both partners purified

| Binder | binding result [1] | binding result [2] |
| --- | --- | --- |
| 2C8 mouse antibody (antibody, V domains shown, Mouse IgG2a; source: hybridoma culture supernatant, purified (HiTrap protein-G HP)) VH: EVKLVESGGGLVQPGGSLSLSCAASGFTFTDYYMTWVRQPPGKALEWLALIRNKASGYTTEYSASVKGRFTISRDNSQSILYLQMNALRAEDSATYYCTRAKWDGHYFDYWGQGTTLTVSS VL: DIQMTQSPASLSVSVGETVTITCRATKNIYNNLAWYQQKQGRSPQLLVYAATNLADGVPSRFSGSGSGTQFSLRINSLQSEDFGNYYCQHFWHTPWTFGGGTKLEIK | binds | – |
| 513 engineered and humanized antibody (antibody, V domains shown) VH: QVQLVQSGAEVKKPGASVKVSCKAGFNIKDVYMSWVRQAPEQGLEWMGRIDPENGDTKYDPKLQGRVTMTADTSTNTAYMELRSLRSDDTAVYYCARGWEGFAYWGQGTLVTVSS VL: DIVMTQSPASLAVSLGQRATISCRASENVDKYGNSFMHWYQQKPGQPPKLLIYRASELQWGVPDRFSGSGSGTDFTLTISSLQAEDVAVYYCQRSNEVPWTFGQGTKLEIK | binds | – |
| 3H5 mouse antibody (antibody, V domains shown) VH: QVQLQQSGAEVARPGASVKLSCKASGYTFTSYWLQWVKQRPGQGLEWIGAIWPGDDDTRYAQKFQGKATMTADKSSSTAYIQLSNLASEDSAVYYCARKGGFAMDYWGQGTSVTVSS VL: NIVMTQSPTSLAVSLGQRATISCRASESVDSFGKSFMHFYQQKPGQPPKLLIHLASNLESGVPARFTGRGSRTDFTLTIDPVEADDAATYYCQQNNEVPFTFGSGTKLEVK | binds | binds |
